Measured values: patent US7888089B2, “eNOS mutations useful for gene therapy and therapeutic screening” (Yale University, priority 1999, dated 2011)
“Also recorded” adds a separate entry of the source. Like-named read-outs stand apart in the source and are kept apart here.

What was measured:
eNOS [1] = assay: Hemoglobin capture assay of NO production by purified eNOS; type: biochemical, bovine; settings: for Kcat (substrate Arginine, Hemoglobin capture): rate of NO production vs L-arginine, optimal conditions
Description: Assay for NOS Activity—NO production was measured by the hemoglobin capture assay as described (Kelm et al., 1988). Briefly, the reaction mixture contained eNOS (0.5-2.5 μg), oxyhemoglobin (8 μM), L-arginine (100 μM), BH4 (5 μM), CaCl2 (120 μM), calmodulin (120-200 nM), and NADPH (100 μM) in HEPES buffer (50 mM), pH 7.4. […] Under these conditions, free calcium was calculated using the WinMAXC program, version
NOS activity was monitored for linearity over 2 min at 401 nm, and NO production was calculated based on the change of absorbance using the extinction coefficient of 60 mM^−1 cm^−1. All reactions were carried out at 23° C., and each data point represents 3-8 observations. The extinction coefficient of 0.0033 μM^−1 cm^−1 at 276 nm was used for determination of calmodulin concentration. […] When the inactivation of eNOS was determined by the addition of EGTA (200-800 μM) to the reaction mixture, chelator was added 1 min after initiation of the reaction by NADPH. Identical conditions were used when NADPH-cytochrome c reductase activity was examined. These reactions contained CaM (120 nM) and CaCl2 (200 μM) in a 0.5-ml volume with eNOS (0.5 μg).

eNOS [2] = assay: Conversion of L-arginine to L-citrulline by purified eNOS; type: biochemical, bovine; settings: for Kcat (CaM, L-Citrulline): CaM activation of NOS activity
Description: The conversion of L-arginine to L-citrulline was assayed as described previously by Bredt et al. (1990). Briefly, eNOS (0.25-2 μg) was incubated for 3-10 min at 23° C. in the following reaction mixture: 3 pmol of L-[3H]arginine (55 Ci/mmol), 10-300 μM arginine, 1 mM NADPH, 120-200 nM calmodulin, 2 mM CaCl2, and 30 μM BH4 in a final reaction volume of 50-100 μl. The reaction was terminated by the addition of 0.5 ml of 20 mM HEPES, pH 5.5, containing 2 mM EGTA and EDTA. The reaction mixture was placed over Dowex AG50WX8, and the flow-through was counted on a Packard 1500 liquid scintillation analyzer.

cytochrome c = assay: NADPH-cytochrome c reductase activity of purified eNOS; type: biochemical; settings: for Kcat (CaM, Cytochrome c): CaM activation of cytochrome c reduction; for EC50: cytochrome c reduction; for Km: Km for NADPH; for Kcat − CaM (NADPH, Cytochrome c) / Kcat + CaM (NADPH, Cytochrome c): NADPH dependence
Description: Assays for Reductase Activity—NADPH-cytochrome c reductase activity and 2,6-dichlorophenolindophenol (DCIP) reduction were measured as a change in absorbance at 550 nm as described previously by Martasek et al. (1999) and Masters et al. (1967) using an extinction coefficient of 0.021 μM^−1 cm^−1 for both cytochrome c and DCIP. Briefly, a reaction mixture (1 ml) contained either cytochrome c (90 μM); DCIP (36 μM), HEPES buffer (50 mM) at pH 7.6, NaCl (250 mM), NADPH (100 μM), calmodulin (120 nM), and CaCl2 (200 μM); or other substances as indicated. The reaction was monitored for 60 s (at 23° C.) after the addition of eNOS. When inactivation of reductase activity was determined by the addition of EGTA (200-800 μM), chelator was added 1 min after initiation of the reaction and monitored for an additional 1 min. The reaction contained HEPES buffer (50 mM) at pH 7.6, CaM (120 nM), and CaCl2 (200 μM) and was initiated with NADPH (100 μM). No NaCl was added in experiments that examined EGTA inactivation of eNOS to mimic the conditions used in the hemoglobin capture experiments. […] Determination of the calcium EC50 for eNOS was performed as described above for the hemoglobin capture assay.

eNOS [3] = assay: NOS activity (3H-L-arginine to 3H-L-citrulline) in COS cell lysates; type: biochemical, bovine; settings: COS cells transfected with eNOS only, n=3
Excerpt: NOS activity assays: The conversion of ^3H-L-arginine to ^3H-L-citrulline was used to determine NOS activity in COS cell or endothelial cell lysates as previously described by Garcia-Cardena et al. (1998).

Akt = assay: 32P phosphorylation of eNOS in intact transfected COS cells; type: cell-based; settings: intact COS cells, 32P-orthophosphate
Description: Phosphorylation studies in vivo and in vitro: For in vivo phosphorylation studies, COS cells were transfected with the cDNAs for wild-type or S635, 1179A eNOS and HA-Akt overnight. 36 hrs after transfection, cells were placed into dialyzed serum replete, phosphate-free Dulbecco's minimum essential medium supplemented with 80 μCi/ml of ^32P orthophosphoric acid for 3 hr. Some cells were pretreated with wortmannin (500 nM) in the phosphate-free media for 1 hr and during the labeling.

EC50 (eNOS [1]; EC50 for free calcium, NO production, 250 nM CaM, read-out: EC50 (Ca2+, Hemoglobin capture, 100 mM KCl)): 310 nM | EC50 (eNOS [2]; EC50 for CaM, NOS activity): 8 nM | EC50 (cytochrome c; EC50 for CaM, listed as wild type, read-out: EC50 (CaM, Cytochrome c)): 21 nM | EC50 (cytochrome c; EC50 for CaM, read-out: EC50 (CaM, Cytochrome c)): 13 nM | EC50 (cytochrome c; EC50 for free calcium, read-out: EC50 (Ca2+, Cytochrome c, 100 mM KCl)): 290 nM | cytochrome c reduction, first value of pair (with superoxide dismutase) (cytochrome c; absence of CaM): 86 ± 6 min⁻¹ | cytochrome c reduction, second value of pair (without superoxide dismutase) (cytochrome c; absence of CaM): 95 ± 8 min⁻¹ | cytochrome c reduction with superoxide dismutase (cytochrome c; presence of CaM): 610 ± 51 min⁻¹ | cytochrome c reduction without superoxide dismutase (cytochrome c; presence of CaM): 866 ± 8 min⁻¹ | relative decrease in cytochrome c activity in the presence of superoxide dismutase (cytochrome c; presence of CaM): 30% | CaM-stimulated cytochrome c reduction (cytochrome c; presence of CaM, n=3-5): 749 ± 35 min⁻¹ | level of stimulation of cytochrome c reduction by CaM (cytochrome c; with vs without CaM): 8 fold
B1: Wild type: Wild type bovine endothelial nitric oxide synthase (eNOS) (protein, UniProt P29473 2-1205, looked up)
Nitric oxide synthase 3: GNLKSVGQEPGPPCGLGLGLGLGLCGKQGPASPAPEPSRAPAPATPHAPDHSPAPNSPTLTRPPEGPKFPRVKNWELGSITYDTLCAQSQQDGPCTPRCCLGSLVLPRKLQTRPSPGPPPAEQLLSQARDFINQYYSSIKRSGSQAHEERLQEVEAEVASTGTYHLRESELVFGAKQAWRNAPRCVGRIQWGKLQVFDARDCSSAQEMFTYICNHIKYATNRGNLRSAITVFPQRAPGRGDFRIWNSQLVRYAGYRQQDGSVRGDPANVEITELCIQHGWTPGNGRFDVLPLLLQAPDEAPELFVLPPELVLEVPLEHPTLEWFAALGLRWYALPAVSNMLLEIGGLEFSAAPFSGWYMSTEIGTRNLCDPHRYNILEDVAVCMDLDTRTTSSLWKDKAAVEINLAVLHSFQLAKVTIVDHHAATVSFMKHLDNEQKARGGCPADWAWIVPPISGSLTPVFHQEMVNYILSPAFRYQPDPWKGSATKGAGITRKKTFKEVANAVKISASLMGTLMAKRVKATILYASETGRAQSYAQQLGRLFRKAFDPRVLCMDEYDVVSLEHEALVLVVTSTFGNGDPPENGESFAAALMEMSGPYNSSPRPEQHKSYKIRFNSVSCSDPLVSSWRRKRKESSNTDSAGALGTLRFCVFGLGSRAYPHFCAFARAVDTRLEELGGERLLQLGQGDELCGQEEAFRGWAKAAFQASCETFCVGEEAKAAAQDIFSPKRSWKRQRYRLSTQAEGLQLLPGLIHVHRRKMFQATVLSVENLQSSKSTRATILVRLDTAGQEGLQYQPGDHIGICPPNRPGLVEALLSRVEDPPPPTESVAVEQLEKGSPGGPPPSWVRDPRLPPCTLRQALTFFLDITSPPSPRLLRLLSTLAEEPSEQQELETLSQDPRRYEEWKWFRCPTLLEVLEQFPSVALPAPLLLTQLPLLQPRYYSVSSAPNAHPGEVHLTVAVLAYRTQDGLGPLHYGVCSTWLSQLKTGDPVPCFIRGAPSFRLPPDPYVPCILVGPGTGIAPFRGFWQERLHDIESKGLQPAPMTLVFGCRCSQLDHLYRDEVQDAQERGVFGRVLTAFSREPDSPKTYVQDILRTELAAEVHRVLCLERGHMFVCGDVTMATSVLQTVQRILATEGDMELDEAGDVIGVLRDQQRYHEDIFGLTLRTQEVTSRIRTQSFSLQERHLRGAVPWAFDPPGPDTPGP
NO production after calcium chelation with EGTA (eNOS [1]; 600 μM EGTA, 200 μM calcium, listed as wild type eNOS): no activity was detected; also recorded: no detectable activity | Km (eNOS [1]; Km for L-arginine, read-out: Km (substrate Arginine, Hemoglobin capture)): 1.8 µM | Km (eNOS [1]; Km for NADPH, in presence of CaM, read-out: Km (NADPH, Hemoglobin capture)): 8 µM | Kcat (NADPH, Hemoglobin capture) (eNOS [1]; NADPH dependence, in presence of CaM): 17 ± 1 min⁻¹ | Kcat (Ca2+, Hemoglobin capture, 100 mM KCl) (eNOS [1]; calcium activation, 250 nM CaM): 58 ± 1 min⁻¹ | maximal turnover rate, FIG. 8C (eNOS [1]; calcium-dependent NO production): 58 min1 | maximal turnover rate, FIG. 8A (eNOS [1]; calmodulin-dependent hemoglobin capture): 22 min⁻¹ | Kcat (substrate Arginine, Hemoglobin capture) (eNOS [1]): 27 ± 1 min⁻¹ | Kcat (substrate Arginine, Hemoglobin capture) (eNOS [1]; listed as wild type): 27 ± 1 min⁻¹ | Kcat (CaM, L-Citrulline) (eNOS [2]): 22 ± 2 min⁻¹ | Kcat (CaM, L-Citrulline) (eNOS [2]; listed as wild type): 22 min⁻¹ | Kcat (CaM, Cytochrome c) (cytochrome c): 620 ± 78 min⁻¹ | Kcat (CaM, Cytochrome c) (cytochrome c; listed as wild type eNOS): 620 min⁻¹ | Km (cytochrome c; absence of CaM): 400 nM | Km (cytochrome c; presence of CaM): 750 nM | Kcat − CaM (NADPH, Cytochrome c) (cytochrome c; absence of CaM): 70 ± 5 min⁻¹ | Kcat − CaM (NADPH, Cytochrome c) (cytochrome c; absence of CaM, listed as wild type eNOS): 70 min⁻¹ | Kcat + CaM (NADPH, Cytochrome c) (cytochrome c; presence of CaM): 460 ± 18 min⁻¹ | Kcat + CaM (NADPH, Cytochrome c) (cytochrome c; presence of CaM, listed as wild type eNOS): 460 min⁻¹ | Kcat (Ca2+, Cytochrome c, 100 mM KCl) (cytochrome c; calcium activation): 1909 ± 33 min⁻¹ | maximal turnover rate, FIG. 8D (cytochrome c; calcium-dependent cytochrome c reduction): 1930 min⁻¹ | maximal turnover rate, FIG. 8B (cytochrome c; calmodulin-dependent cytochrome c reduction): 620 min1 | reductase activity after calcium chelation with EGTA (cytochrome c; highest concentration of EGTA): residual reductase activity was found | NOS activity in lysates (eNOS [3]): 85.3±27.0 pmol L-citrulline generated/mg protein | enhancement in phosphorylation on co-expression of Akt relative to non-stimulated cells (Akt): 2 fold
